According to paper doi:10.1101/2024.02.21.581378 (bioRxiv, 2024):

Experiments:
[1] = target: macaque TMPRSS2 N469Y on transfected 293T cells (macaque)
[2] = target: T1, TMPRSS2^S441A (human TMPRSS2 residues 107-492, zymogen, uncleaved) (human, UniProt O15393 107-492, S441A); experiment: crystal structure
[3] = target: cleaved soluble TMPRSS2^S441A (TMPRSS2^S441A-Cl) (human, UniProt O15393 107-255; O15393 256-492, S441A); experiment: BLI
[4] = target: T1, TMPRSS2^S441A (human TMPRSS2 residues …); experiment: BLI

T1 sequence (O15393 107-492 S441A): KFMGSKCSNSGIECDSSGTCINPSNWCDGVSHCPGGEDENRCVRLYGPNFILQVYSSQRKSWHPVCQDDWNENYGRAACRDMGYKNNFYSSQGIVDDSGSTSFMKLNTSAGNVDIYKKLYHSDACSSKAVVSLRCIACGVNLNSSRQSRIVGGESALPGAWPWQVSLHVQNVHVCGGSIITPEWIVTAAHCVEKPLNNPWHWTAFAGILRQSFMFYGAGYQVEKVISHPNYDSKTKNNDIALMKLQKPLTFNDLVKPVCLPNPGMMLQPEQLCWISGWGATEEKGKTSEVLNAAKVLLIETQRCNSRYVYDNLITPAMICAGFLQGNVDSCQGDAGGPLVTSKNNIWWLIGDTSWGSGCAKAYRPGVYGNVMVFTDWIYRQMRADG
cleaved soluble TMPRSS2^S441A (TMPRSS2^S441A-Cl), sequence (O15393 107-255, chain 1 of 2): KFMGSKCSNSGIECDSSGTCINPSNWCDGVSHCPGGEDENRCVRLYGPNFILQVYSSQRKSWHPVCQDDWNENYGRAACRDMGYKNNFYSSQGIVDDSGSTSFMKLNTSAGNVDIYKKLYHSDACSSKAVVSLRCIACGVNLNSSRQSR
cleaved soluble TMPRSS2^S441A (TMPRSS2^S441A-Cl), sequence (O15393 256-492 S441A, chain 2 of 2): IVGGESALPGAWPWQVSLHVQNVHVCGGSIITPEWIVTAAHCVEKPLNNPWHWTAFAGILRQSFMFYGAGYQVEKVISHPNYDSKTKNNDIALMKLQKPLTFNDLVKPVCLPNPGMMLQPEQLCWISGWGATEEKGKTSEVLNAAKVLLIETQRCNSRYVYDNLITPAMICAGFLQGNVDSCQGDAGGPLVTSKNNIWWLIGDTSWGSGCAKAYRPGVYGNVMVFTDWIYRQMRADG

## soluble biotinylated HKU1B spike (from UniProt Q0ZME7) (natural protein)
[1]
  entry of HKU1B pseudoviruses, fold increase against wild-type macaque TMPRSS2: 10 fold

B1: HKU1B RBD and subdomain-1 (RBD-SD1, residues 307-675 of the spike protein) (domain or fragment)
chain: SGFTVKPVATVYRRIPNLPDCDIDNWLNNVSVPSPLNWERRIFSNCNFNLSTLLRLVHVDSFSCNNLDKSKIFGSCFNSITVDKFAIPNRRRDDLQLGSSGFLQSSNYKIDISSSSCQLYYSLPLVNVTINNFNPSSWNRRYGFGSFNLSSYDVVYSDHCFSVNSDFCPCADPSVVNSCAKSKPPSAICPAGTKYRHCDLDTTLYVKNWCRCSCLPDPISTYSPNTCPQKKVVVGIGEHCPGLGINEEKCGTQLNHSSCFCSPDAFLGWSFDSCISNNRCNIFSNFIFNGINSGTTCSNDLLYSNTEISTGVCVNYDLYGITGQGIFKEVSAAYYNNWQNLLYDSNGNIIGFKDFLTNKTYTILPCYSG
[2]
  binding result: binds

B2: HKU1B RBD (residues 330-614 of the spike protein), wild type (domain or fragment)
chain: DNWLNNVSVPSPLNWERRIFSNCNFNLSTLLRLVHVDSFSCNNLDKSKIFGSCFNSITVDKFAIPNRRRDDLQLGSSGFLQSSNYKIDISSSSCQLYYSLPLVNVTINNFNPSSWNRRYGFGSFNLSSYDVVYSDHCFSVNSDFCPCADPSVVNSCAKSKPPSAICPAGTKYRHCDLDTTLYVKNWCRCSCLPDPISTYSPNTCPQKKVVVGIGEHCPGLGINEEKCGTQLNHSSCFCSPDAFLGWSFDSCISNNRCNIFSNFIFNGINSGTTCSNDLLYSNTEI
[3]
  Kd: 30 nM

B3: HKU1B RBD (residues 330-614) Y528A (domain or fragment)
chain: DNWLNNVSVPSPLNWERRIFSNCNFNLSTLLRLVHVDSFSCNNLDKSKIFGSCFNSITVDKFAIPNRRRDDLQLGSSGFLQSSNYKIDISSSSCQLYYSLPLVNVTINNFNPSSWNRRYGFGSFNLSSYDVVYSDHCFSVNSDFCPCADPSVVNSCAKSKPPSAICPAGTKYRHCDLDTTLYVKNWCRCSCLPDPISTASPNTCPQKKVVVGIGEHCPGLGINEEKCGTQLNHSSCFCSPDAFLGWSFDSCISNNRCNIFSNFIFNGINSGTTCSNDLLYSNTEI
[4]
  binding result: binds
[3]
  binding result: binds

B4: HKU1B RBD (residues 330-614) K487A (domain or fragment)
chain: DNWLNNVSVPSPLNWERRIFSNCNFNLSTLLRLVHVDSFSCNNLDKSKIFGSCFNSITVDKFAIPNRRRDDLQLGSSGFLQSSNYKIDISSSSCQLYYSLPLVNVTINNFNPSSWNRRYGFGSFNLSSYDVVYSDHCFSVNSDFCPCADPSVVNSCAASKPPSAICPAGTKYRHCDLDTTLYVKNWCRCSCLPDPISTYSPNTCPQKKVVVGIGEHCPGLGINEEKCGTQLNHSSCFCSPDAFLGWSFDSCISNNRCNIFSNFIFNGINSGTTCSNDLLYSNTEI
[4]
  binding result: binds
[3]
  binding result: binds

B5: HKU1B RBD (residues 330-614) L510R (domain or fragment)
chain: DNWLNNVSVPSPLNWERRIFSNCNFNLSTLLRLVHVDSFSCNNLDKSKIFGSCFNSITVDKFAIPNRRRDDLQLGSSGFLQSSNYKIDISSSSCQLYYSLPLVNVTINNFNPSSWNRRYGFGSFNLSSYDVVYSDHCFSVNSDFCPCADPSVVNSCAKSKPPSAICPAGTKYRHCDLDTTRYVKNWCRCSCLPDPISTYSPNTCPQKKVVVGIGEHCPGLGINEEKCGTQLNHSSCFCSPDAFLGWSFDSCISNNRCNIFSNFIFNGINSGTTCSNDLLYSNTEI
[4]
  binding result: binds
[3]
  binding result: binds

B6: HKU1B RBD (residues 330-614) S529A (domain or fragment)
chain: DNWLNNVSVPSPLNWERRIFSNCNFNLSTLLRLVHVDSFSCNNLDKSKIFGSCFNSITVDKFAIPNRRRDDLQLGSSGFLQSSNYKIDISSSSCQLYYSLPLVNVTINNFNPSSWNRRYGFGSFNLSSYDVVYSDHCFSVNSDFCPCADPSVVNSCAKSKPPSAICPAGTKYRHCDLDTTLYVKNWCRCSCLPDPISTYAPNTCPQKKVVVGIGEHCPGLGINEEKCGTQLNHSSCFCSPDAFLGWSFDSCISNNRCNIFSNFIFNGINSGTTCSNDLLYSNTEI
[3]
  binding result: binds
